Residue numbers refer to the chain shown, from its start. Names and notes keep the numbering of the source. Values joined by “and” are separate entries in the source; they are usually repeats but may differ in a detail not shown here. Equal entries are not always repeated. Where two headings read alike, the source gives them in different places.
Tests used:
Human OSM [1] = molecular target: T1, Human OSM (human, UniProt P13725 26-221); assay: SPR (ProteOn XPR36 or Biacore T100), captured supernatant, OSM as analyte; hatched cell: separate experiment
T1 construct: Recombinant human OSM; also called hOSM; human Oncostatin M
T1 sequence: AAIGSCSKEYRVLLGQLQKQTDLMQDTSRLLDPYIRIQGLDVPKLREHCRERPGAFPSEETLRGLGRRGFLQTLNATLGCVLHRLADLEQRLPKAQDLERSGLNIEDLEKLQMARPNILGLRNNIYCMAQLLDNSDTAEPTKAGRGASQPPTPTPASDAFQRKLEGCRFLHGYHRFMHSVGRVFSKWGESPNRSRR
Method: (§1) The initial kinetic analyses for the CDRH3 screen were carried out on the ProteOn XPR36 (Biorad Laboratories) and certain supernatants were selected for more accurate kinetic analysis on the BiaCore T100.
(§2) For the ProteOn analysis, anti-human IgG (GE Healthcare/Biacore BR-1008-39) was coupled to a GLM chip (Biorad Laboratories 176-5012) by primary amine coupling. The CDRH3 variants were captured directly on to this surface and recombinant human OSM was passed over the captured antibody surface at 256, 64, 16, 4 and 1 nM, with a buffer injection alone (i.e. 0 nM) used to double reference the binding curves. Following the OSM binding event, the capture surfaces were regenerated: with 3M MgCl₂ the regeneration removed the previously captured antibody ready for another cycle of capture and binding analysis. The data was then fitted to the 1:1 model (with mass transport) inherent to the ProteOn analysis software. The run was carried out using HBS-EP (Biacore/GE-Healthcare BR-1006-69) and the analysis temperature was 25° C.
(§3) A similar method was used for analysis of constructs using the Biacore T100, anti-human IgG (GE Healthcare/Biacore BR-1008-39) was coupled to a CM5 chip (GE Healthcare/Biacore BR-1006-68) by primary amine coupling, antibodies were captured on this surface and recombinant human OSM was passed over the captured antibody surface at 256, 64, 16, 4 and 1 nM, with a buffer injection alone (i.e. 0 nM) used to double reference the binding curves. Regeneration was by using pulses of 3M 3M MgCl₂ or 100 mM phosphoric acid or using both reagents. The data was fitted to the 1:1 model inherent to the Biacore T100 analysis software. The run was carried out using HBS-EP (Biacore/GE-Healthcare BR-1006-69) and the analysis temperature was 25° C.

Human OSM [2] = molecular target: T1, Human OSM; assay: SPR (ProteOn XPR36 or Biacore T100), captured supernatant, OSM as analyte; grey cell: 3x decrease in binding
Method: as §1, §2, §3

Human OSM [3] = molecular target: T1, Human OSM; assay: cell-based or functional assay
Cynomolgus OSM [4] = molecular target: T2, Cynomolgus OSM (cynomolgus, UniProt A0A2K5VPC6 26-221); assay: cell-based or functional assay
T2 sequence: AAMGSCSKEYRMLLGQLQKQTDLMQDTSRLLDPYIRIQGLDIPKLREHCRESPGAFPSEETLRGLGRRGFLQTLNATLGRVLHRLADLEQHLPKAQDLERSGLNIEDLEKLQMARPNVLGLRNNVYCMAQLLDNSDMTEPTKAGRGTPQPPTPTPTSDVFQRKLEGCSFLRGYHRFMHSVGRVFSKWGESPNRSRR

Human OSM [5] = molecular target: T1, Human OSM; assay: BIAcore kinetics, transfection supernatant
Cynomolgus OSM [6] = molecular target: T2, Cynomolgus OSM; assay: BIAcore kinetics, transfection supernatant
Human OSM [7] = molecular target: T1, Human OSM; assay: cell-based or functional assay; remark: listed apart in the source
Cynomolgus OSM [8] = molecular target: T2, Cynomolgus OSM; assay: cell-based or functional assay; remark: listed apart in the source
Human OSM [9] = molecular target: T1, Human OSM; assay: BIAcore kinetics, purified antibody
Cynomolgus OSM [10] = molecular target: T2, Cynomolgus OSM; assay: BIAcore kinetics, purified antibody
Human OSM [11] = molecular target: T1, Human OSM; assay: BIAcore kinetics, transfection supernatant; remark: listed apart in the source

B1: Pos 98 Met (antibody, V domains shown)
VH: EVQLVESGGGLVQPGGSLRLSCAASGFTFSSYAMSWVRQAPGKGLEWVATISDGGSFTYYLDNVRGRFTISRDNAKNSLYLQMNSLRAEDTAVYYCARDVGMTTFWYFDVWGRGTLVTVSS
VL: DIVMTQSPDSLAVSLGERATINCRASKSVSAAGYNFMHWYQQKPGQPPKVLIYYASNLESGVPDRFSGSGSGTDFTLTISSLQAEDVAVYYCLHSREFPFTFGGGTKVEIKR
notes: also called CDRH3 H98>M
A Kd (Human OSM [1]) of 6.93 nM was found for B1 in this work.

B2: Pos 99 His (antibody, V domains shown)
VH: B1 VH with M102H, T103H
VL: B1 VL
notes: also called CDRH3 T99>H
A Kd (Human OSM [1]) of 15.6 nM was found for B2 in this work.

B3: Pos 99 Met (antibody, V domains shown)
VH: B1 VH with M102H, T103M
VL: B1 VL
notes: also called CDRH3 T99>M
A Kd (Human OSM [1]) of 1.62 nM was found for B3 in this work.

B4: Pos 100A His (antibody, V domains shown)
VH: B1 VH with M102H, F105H
VL: B1 VL
notes: also called CDRH3 F100A>H
A Kd (Human OSM [2]) of 39.7 nM was found for B4 in this work.

B5: Pos 100A Met (antibody, V domains shown)
VH: B1 VH with M102H, F105M
VL: B1 VL
notes: also called CDRH3 F100A>M
A Kd (Human OSM [2]) of 5.19 nM was found for B5 in this work.

B6: Pos 100B Gln (antibody, V domains shown)
VH: B1 VH with M102H, W106Q
VL: B1 VL
notes: also called CDRH3 W100B>Q
A Kd (Human OSM [2]) of 3.35 nM was found for B6 in this work.

B7: Pos 100B His (antibody, V domains shown)
VH: B1 VH with M102H, W106H
VL: B1 VL
notes: also called CDRH3 W100B>H
A Kd (Human OSM [1]) of 36.2 nM was found for B7 in this work.

B8: Pos 100B Met (antibody, V domains shown)
VH: B1 VH with M102H, W106M
VL: B1 VL
notes: also called CDRH3 W100B>M
A Kd (Human OSM [1]) of 40.3 nM was found for B8 in this work.

B9: Pos 100C Gln (antibody, V domains shown)
VH: B1 VH with M102H, Y107Q
VL: B1 VL
notes: also called CDRH3 Y100C>Q
A Kd (Human OSM [2]) of 1.17 nM was found for B9 in this work.

B10: Pos 100C Leu (antibody, V domains shown)
VH: B1 VH with M102H, Y107L
VL: B1 VL
notes: also called CDRH3 Y100C>L
A Kd (Human OSM [2]) of 0.424 nM was found for B10 in this work.

B11: Pos 101 Ala (antibody, V domains shown)
VH: B1 VH with M102H, D109A
VL: B1 VL
notes: also called CDRH3 D101>A
A Kd (Human OSM [2]) of 1.55 nM was found for B11 in this work.

B12: Pos 101 Gln (antibody, V domains shown)
VH: B1 VH with M102H, D109Q
VL: B1 VL
notes: also called CDRH3 D101>Q
A Kd (Human OSM [2]) of 1.1 nM was found for B12 in this work.

B13: Humanised 10G8 H0(IGHV3-23)L1(IGK4-1) (antibody, V domains shown)
VH: B1 VH with M102H
VL: DIVMTQSPDSLAVSLGERATINCRASKSVSAAGYNFMHWYQQKPGQPPKVLIYWASTRESGVPDRFSGSGSGTDFTLTISSLQAEDVAVYYCLHSREFPFTFGGGTKVEIK
notes: built from the stated exchange of CDRL2; residue limits derived by me; also called H0 IGHV3_23 + L1 IGKV4_1; H0(huCDRH1)L1(huCDRL2)
With B13 the “KB cell neutralisation assay, mean IC50” value (Human OSM [3]) was 0.077 µg/ml and 513 pM, the “KB cell neutralisation assay, mean IC50” value (Cynomolgus OSM [4]) was 0.114 µg/ml and 760 pM and the Kd (Human OSM [5]) was 1.56 nM. The koff (Human OSM [5]) was 0.000247 s⁻¹, the kon (Human OSM [5]) was 159000 M⁻¹ s⁻¹ and the Kd (Cynomolgus OSM [6]) was 1.47 nM. It also gave a koff (Cynomolgus OSM [6]) of 0.000223 s⁻¹ and a kon (Cynomolgus OSM [6]) of 152000 M⁻¹ s⁻¹.

B14: Humanised 10G8 H0L1(IGKV4-1) (antibody, V domains shown)
VH: B1 VH with S31N, M102H
VL: B13 VL
notes: built from the stated exchange of CDRL2; residue limits derived by me; Human gamma 1/kappa constant regions; also called H0L1(huCDRL2)
B14 was tested, and the “KB cell neutralisation assay, mean IC50” value (Human OSM [3]) was 0.054 µg/ml and 360 pM, the “KB cell neutralisation assay, mean IC50” value (Cynomolgus OSM [4]) was 0.081 µg/ml and 540 pM and the Kd (Human OSM [5]) was 1.37 nM. For the same binder, the koff (Human OSM [5]) was 0.000221 s⁻¹, the kon (Human OSM [5]) was 161000 M⁻¹ s⁻¹ and the Kd (Cynomolgus OSM [6]) was 1.41 nM. The koff (Cynomolgus OSM [6]) was 0.000212 s⁻¹ and the kon (Cynomolgus OSM [6]) was 150000 M⁻¹ s⁻¹.

B15: Humanised 10G8 H0L4 (antibody, V domains shown)
VH: B1 VH with S31N, M102H
VL: B13 VL with W54Y, T57N, R58L, A88V, K107N
In the case of B15, the “KB cell neutralisation assay, mean IC50” value (Human OSM [7]) is reported as 0.018 µg/ml and 118 pM, the “KB cell neutralisation assay, mean IC50” value (Cynomolgus OSM [8]) is reported as 0.012 µg/ml and 49 pM and the Kd (Human OSM [9]) is reported as 0.374 nM. The koff (Human OSM [9]) was 0.00014 s⁻¹, the kon (Human OSM [9]) was 374000 M⁻¹ s⁻¹ and the Kd (Cynomolgus OSM [10]) was 0.242 nM. The koff (Cynomolgus OSM [10]) was 0.000101 s⁻¹, the kon (Cynomolgus OSM [10]) was 418000 M⁻¹ s⁻¹ and the Kd (Human OSM [11]) was 0.268 nM. The koff (Human OSM [11]) was 0.000111 s⁻¹ and the kon (Human OSM [11]) was 413000 M⁻¹ s⁻¹.

B16: Humanised 10G8 H1L4 (antibody, V domains shown)
VH: B1 VH with V2M, S31N, M102H
VL: B13 VL with W54Y, T57N, R58L, A88V, K107N
With B16 the “KB cell neutralisation assay, mean IC50” value (Human OSM [7]) was 0.016 µg/ml and 107 pM, the “KB cell neutralisation assay, mean IC50” value (Cynomolgus OSM [8]) was 0.011 µg/ml and 10 pM and the Kd (Human OSM [9]) was 0.37 nM. It also gave a koff (Human OSM [9]) of 0.000135 s⁻¹, a kon (Human OSM [9]) of 365000 M⁻¹ s⁻¹ and a Kd (Cynomolgus OSM [10]) of 0.264 nM. It also gave a koff (Cynomolgus OSM [10]) of 0.000111 s⁻¹, a kon (Cynomolgus OSM [10]) of 421000 M⁻¹ s⁻¹ and a Kd (Human OSM [11]) of 0.344 nM. The koff (Human OSM [11]) was 0.00013 s⁻¹ and the kon (Human OSM [11]) was 377000 M⁻¹ s⁻¹.

B17: Humanised 10G8 H2L1 (antibody, V domains shown)
VH: B1 VH with S31N, M102H, R113S
VL: B13 VL with W54Y, T57N, R58L
In the case of B17, the “KB cell neutralisation assay, mean IC50” value (Human OSM [7]) is reported as 0.014 µg/ml and 93 pM, the “KB cell neutralisation assay, mean IC50” value (Cynomolgus OSM [8]) is reported as 0.013 µg/ml and 14 pM and the Kd (Human OSM [9]) is reported as 0.365 nM. The koff (Human OSM [9]) was 0.00014 s⁻¹, the kon (Human OSM [9]) was 383000 M⁻¹ s⁻¹ and the Kd (Cynomolgus OSM [10]) was 0.299 nM. The koff (Cynomolgus OSM [10]) was 0.000124 s⁻¹, the kon (Cynomolgus OSM [10]) was 414000 M⁻¹ s⁻¹ and the Kd (Human OSM [11]) was 0.286 nM. It also gave a koff (Human OSM [11]) of 0.000113 s⁻¹ and a kon (Human OSM [11]) of 394000 M⁻¹ s⁻¹.

B18: Humanised 10G8 H2L4 (antibody, V domains shown)
VH: B1 VH with S31N, M102H, R113S
VL: B13 VL with W54Y, T57N, R58L, A88V, K107N
For B18, the “KB cell neutralisation assay, mean IC50” value (Human OSM [7]) was 0.022 µg/ml and 147 pM, the “KB cell neutralisation assay, mean IC50” value (Cynomolgus OSM [8]) was 0.016 µg/ml and 58 pM and the Kd (Human OSM [9]) was 0.356 nM. It also gave a koff (Human OSM [9]) of 0.000135 s⁻¹, a kon (Human OSM [9]) of 380000 M⁻¹ s⁻¹ and a Kd (Cynomolgus OSM [10]) of 0.205 nM. The koff (Cynomolgus OSM [10]) was 9.01e-05 s⁻¹, the kon (Cynomolgus OSM [10]) was 441000 M⁻¹ s⁻¹ and the Kd (Human OSM [11]) was 0.226 nM. It also gave a koff (Human OSM [11]) of 0.000101 s⁻¹ and a kon (Human OSM [11]) of 448000 M⁻¹ s⁻¹.

B19: Humanised 10G8 H1L1 (antibody, V domains shown)
VH: B1 VH with V2M, S31N, M102H
VL: B13 VL with W54Y, T57N, R58L
With B19 the “KB cell neutralisation assay, mean IC50” value (Human OSM [7]) was 0.013 µg/ml and 83 pM, the “KB cell neutralisation assay, mean IC50” value (Cynomolgus OSM [8]) was 0.01 µg/ml and 67 pM and the Kd (Human OSM [9]) was 0.443 nM. For the same binder, the koff (Human OSM [9]) was 0.000166 s⁻¹, the kon (Human OSM [9]) was 375000 M⁻¹ s⁻¹ and the Kd (Cynomolgus OSM [10]) was 0.258 nM. The koff (Cynomolgus OSM [10]) was 0.00011 s⁻¹, the kon (Cynomolgus OSM [10]) was 428000 M⁻¹ s⁻¹ and the Kd (Human OSM [11]) was 0.25 nM. It also gave a koff (Human OSM [11]) of 9.99e-05 s⁻¹ and a kon (Human OSM [11]) of 400000 M⁻¹ s⁻¹.

Source: patent US20130251724A1 (GlaxoSmithKline, published 2013)
